In patent US20240034792A1 (HARBOUR BIOMED SHANGHAI, published 2024):
Like-named read-outs stand apart in the source and are kept apart here.

Assays:
[1] = target: T1, Human PD-1 expressed on CHO-K1 cells (CHO-K1/hPD-1) (human, UniProt Q15116 25-288); experiment: FACS, CHO-K1/hPD-1 cells
T1 construct: whole, on cells; also called CHO-K1 cells overexpressing human PD-1
Experimental: In order to investigate the in vitro binding activity of the PD-1 antigen-binding proteins to human/cynomolgus monkey PD-1, the binding assay at the cellular level was performed using a CHO-K1 cell strain overexpressing human or cynomolgus monkey PD-1 (CHO-K1/hPD-1 or CHO-K1/cyno PD-1, from GenScript). Briefly, the CHO-K1-hPD-1 cells were digested and resuspended in an F-12K complete medium, and the cell density was adjusted to 1×10⁶ cells/mL. The cells were seeded in a 96-well V-bottom plate (Corning, Cat#3894) at 100 μL/well, followed by the addition of the test antigen-binding proteins with concentrations 2-fold of final concentrations obtained by 5-fold gradient dilution were each added at 100 μL/well. The mixtures were well mixed. The maximum final concentration of the antigen-binding proteins was 100 nM or 300 nM. A total of 8-11 concentrations were set. hIgG was used as a control. The cells were incubated at 4° C. for 1 h away from light. Thereafter, the cells in each well were rinsed twice with 100 μL of pre-cooled PBS, and centrifuged at 500 g at 4° C. for 5 min, and then the supernatant was discarded. Then 100 μL of a fluorescent secondary antibody (goat anti-human IgG (H+L) secondary antibody, Alexa Fluor® 488 conjugate, Invitrogen, Cat #A11013, 1:1000) was added to each well. The plate was incubated away from light at 4° C. for 30 min. The cells in each well were rinsed twice with 200 μL of pre-cooled PBS, and centrifuged at 500 g at 4° C. for 5 min, and then the supernatant was discarded. Finally, the cells in each well were resuspended in 200 μL of pre-cooled PBS, and the fluorescence signal values were read using a BD FACS CANTOII.

[2] = target: T2, Human PD-1 protein with histidine and avi tags (ACRO Biosystems, PD1-H82E4) (human, UniProt Q15116 25-167); experiment: BLI; ratio of kdis, apparently PR005090 over the variant
T2 construct: Captured on streptavidin (SA) sensors in the BLI assay; not shown: histidine and avi tags
T2 sequence (Q15116 25-167 limits assumed): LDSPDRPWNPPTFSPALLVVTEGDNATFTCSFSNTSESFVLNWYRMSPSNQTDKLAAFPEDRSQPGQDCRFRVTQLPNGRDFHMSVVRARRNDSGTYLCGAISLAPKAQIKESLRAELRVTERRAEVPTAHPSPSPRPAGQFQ
Experimental: (§1) Human PD-1 proteins with histidine and avi tags were purchased from the manufacturer ACRO Biosystems (Cat#: PD1-H82E4), and the assay buffer was 1× kinetics buffer (diluted from 10× kinetics buffer (ForteBio, Cat#: 18-1105)) for kinetic assay and dilution of antigens and antibodies. The binding kinetics between the antigen and the antibody was analyzed by the biolayer interferometry (BLI) technique using an Octet molecular interaction analyzer (ForteBio, model: Octet Red96e).
(§2) When the binding kinetics between the antigen and the antibody was determined, the rotation speed of the sensor was set at 1000 rpm/min. The eight SA sensors placed in a column were first equilibrated in an assay buffer for 10 min and then used to capture PD-1 at a capture height of 0.5 nm. Thereafter, the SA sensors were equilibrated in the assay buffer for 100 s, and then were associated with each antibody diluted to a single concentration and with a row of blank buffer wells for 180 s, followed by dissociation for 600 s. A new column of SA sensors were used in each cycle.
(§3) When data analysis was performed using Octet Data Analysis software (Fortebio, version 11.0), the reference signals were subtracted by a single reference mode (reference well), the data were fitted by a “1:1 Local fitting” method, and the kinetic parameters of the binding of the antigen to the antibody were calculated to obtain kon (1/Ms) values, kdis (1/s) values and KD (M) values.

[3] = target: T2, Human PD-1 protein with histidine and …; experiment: BLI (Octet Red96e), PD-1 captured on SA sensor, 1:1 local fit
Experimental: as §1, §2, §3

[4] = target: T1, Human PD-1 expressed on CHO-K1 cells …; experiment: FACS, CHO-K1/hPD-1 cells; remark: listed apart in the source
[5] = target: T1, Human PD-1 expressed on CHO-K1 cells …; experiment: FACS, CHO-K1/hPD-1 cells; remark: listed apart in the source

T1 sequence (Q15116 25-288): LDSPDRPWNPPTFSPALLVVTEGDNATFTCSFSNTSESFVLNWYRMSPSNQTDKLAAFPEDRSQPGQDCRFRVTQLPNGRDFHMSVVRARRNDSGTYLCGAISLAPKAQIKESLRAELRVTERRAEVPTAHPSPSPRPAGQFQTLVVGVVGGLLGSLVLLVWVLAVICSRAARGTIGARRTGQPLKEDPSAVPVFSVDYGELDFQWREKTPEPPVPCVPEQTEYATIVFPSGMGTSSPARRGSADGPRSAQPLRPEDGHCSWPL

Row | Kd [3] | koff [3] | kon [3] | EC50 [4] | Maximum (MFI) [4] | EC50 [5] | Maximum (MFI) [5] | Binder | further results
1 | 79.6 nM | 0.000252 s⁻¹ | 3160 M⁻¹ s⁻¹ | – | – | – | – | PR005103 (VHH, Monovalent single-domain (VH) variant of PR002481 with Flag-6His tag) VHH: EVQLVETGGGLIQPGGSLRLSCAASGFNVSSHYMSWVRQAPGKGREWVSIIDRGGGTYYADSVKGRFTISRDNSKNRLYLQMNSLRAEDTAMYYCARATAVAEKNGYNYPFNYWGQGTLVTVSS | EC50 [1]: 14.5 nM; MFI Maximum [1]: 6890; kdis ratio [2]: 4.54
2 | – | – | – | 8.62 nM | 3.3e+06 | – | – | PR005582 (antibody, human IgG1, V domains shown, no light chain; also called anti-PD1 PR002481Com_28 HCAb hIgG1) VH: EVQLVETGGGLIQPGGSLRLSCAASGFNVASFYMSWVRQAPGKGREWVSIIDKAGSTYYGASVKGRFTISRDNSKNRLYLQMNSLRAEDTAMYYCARATEVREKQGYNYPFNYWGQGTLVTVSS | –
3 | – | – | – | 6.55 nM | 2.95e+06 | – | – | PR005571 (antibody, human IgG1, V domains shown, no light chain; also called anti-PD1 PR002481Com_31 HCAb hIgG1) VH: EVQLVETGGGLIQPGGSLRLSCAASGFNVSFYYMSWVRQAPGKGREWVSIIDKGGSTYYADSVKGRFTISRDNSKNRLYLQMNSLRAEDTAMYYCARATEVREKQGYNYPFNYWGQGTLVTVSS | –
4 | – | – | – | 4.02 nM | 3.02e+06 | – | – | PR005584 (antibody, human IgG1, V domains shown, no light chain; also called anti-PD1 PR002481Com_30 HCAb hIgG1) VH: EVQLVETGGGLIQPGGSLRLSCAASGFNVSSFYMSWVRQAPGKGREWVSIIDKAGSTYYADSVKGRFTISRDNSKNRLYLQMNSLRAEDTAMYYCARATEVREKQGYNYPFNYWGQGTLVTVSS | –
5 | – | – | – | – | – | 6.5 nM | 2.49e+06 | PR005577 (antibody, human IgG1, V domains shown, no light chain; also called anti-PD1 PR002481Com_26 HCAb hIgG1) VH: EVQLVETGGGLIQPGGSLRLSCAASGFNVASYYMSWVRQAPGKGREWVSIIDKAGSGYYADSVKGRFTISRDNSKNRLYLQMNSLRAEDTAMYYCARATEVREKQGYNYPFNYWGQGTLVTVSS | –
6 | 0.482 nM | 5.75e-06 s⁻¹ | 11900 M⁻¹ s⁻¹ | – | – | 3.4 nM | 3.14e+06 | PR005569 (antibody, human IgG1, V domains shown, no light chain; also called anti-PD1 PR002481R2M4_E2 HCAb hIgG1) VH: EVQLVETGGGLIQPGGSLRLSCAASGFNVSFYYMSWVRQAPGKGREWVSIIDKSGSTYYAASVKGRFTISRDNSKNRLYLQMNSLRAEDTAMYYCARATEVREKNGYNYPFNYWGQGTLVTVSS | –
7 | 3.08 nM | 2.22e-05 s⁻¹ | 13200 M⁻¹ s⁻¹ | – | – | 7.83 nM | 3.11e+06 | PR005585 (antibody, human IgG1, V domains shown, no light chain; also called anti-PD1 PR002481Com_35 HCAb hIgG1) VH: EVQLVETGGGLIQPGGSLRLSCAASGFTVSSFYMSWVRQAPGKGREWVSIIDKAGSTYYADSVKGRFTISRDNSKNRLYLQMNSLRAEDTAMYYCARATEVREKQGYNYPFNYWGQGTLVTVSS | –
8 | – | – | – | – | – | 4.28 nM | 2.71e+06 | PR005578 (antibody, human IgG1, V domains shown, no light chain; also called anti-PD1 PR002481Com_27 HCAb hIgG1) VH: EVQLVETGGGLIQPGGSLRLSCAASGFNVASYYMSWVRQAPGKGREWVSIIDKAGSGYYADSVKGRFTISRDNSKNRLYLQMNSLRAEDTAMYYCARATAVREKQGYNYPFNYWGQGTLVTVSS | –
9 | 3.32 nM | 4.28e-05 s⁻¹ | 12900 M⁻¹ s⁻¹ | – | – | 4.68 nM | 3.04e+06 | PR005572 (antibody, human IgG1, V domains shown, no light chain; also called anti-PD1 PR002481Com_32 HCAb hIgG1) VH: EVQLVETGGGLIQPGGSLRLSCAASGFNVAFYYMSWVRQAPGKGREWVSIIDKGGSTYYADSVKGRFTISRDNSKNRLYLQMNSLRAEDTAMYYCARATEVREKQGYNYPFNYWGQGTLVTVSS | –
10 | – | – | – | 4.73 nM | 3.08e+06 | – | – | PR005573 (antibody, human IgG1, V domains shown, no light chain; also called anti-PD1 PR002481R2M3_D1 HCAb hIgG1) VH: EVQLVETGGGLIQPGGSLRLSCAASGFNVSSHYMSWVRQAPGKGREWVSIIDKAGSGYYAASVKGRFTISRDNSKNRLYLQMNSLRAEDTAMYYCARATEVREKNGYNYPFNYWGQGTLVTVSS | –
11 | 3.08 nM | 0.000243 s⁻¹ | 79000 M⁻¹ s⁻¹ | – | – | – | – | PR005104 (VHH, Monovalent single-domain (VH) variant of PR002481 with Flag-6His tag) VHH: EVQLVETGGGLIQPGGSLRLSCAASGFNVSSHYMSWVRQAPGKGREWVSIIDISGSTYYADSVKGRFTISRDNSKNRLYLQMNSLRAEDTAMYYCARATAVAEKNGYNYPFNYWGQGTLVTVSS | EC50 [1]: 11.8 nM; MFI Maximum [1]: 7300; kdis ratio [2]: 4.7
12 | 1.69 nM | 1.65e-05 s⁻¹ | 8280 M⁻¹ s⁻¹ | – | – | 4.79 nM | 2.76e+06 | PR005583 (antibody, human IgG1, V domains shown, no light chain; also called anti-PD1 PR002481Com_29 HCAb hIgG1) VH: EVQLVETGGGLIQPGGSLRLSCAASGFNVASFYMSWVRQAPGKGREWVSIIDKAGSTYYADSVKGRFTISRDNSKNRLYLQMNSLRAEDTAMYYCARATEVREKQGYNYPFNYWGQGTLVTVSS | –
13 | – | – | – | 7.31 nM | 3.16e+06 | – | – | PR005581 (antibody, human IgG1, V domains shown, no light chain; also called anti-PD1 PR002481R2M1_A1 HCAb hIgG1) VH: EVQLVETGGGLIQPGGSLRLSCAASGFNVSSFYMSWVRQAPGKGREWVSIIDKAGSTYYGASVKGRFTISRDNSKNRLYLQMNSLRAEDTAMYYCARATEVREKQGYNYPFNYWGQGTLVTVSS | –
14 | – | – | – | 3.91 nM | 2.82e+06 | – | – | PR005574 (antibody, human IgG1, V domains shown, no light chain; also called anti-PD1 PR002481R2M1_F1 HCAb hIgG1) VH: EVQLVETGGGLIQPGGSLRLSCAASGFNVSSHYMSWVRQAPGKGREWVSIIDKAGSGYYADSVKGRFTISRDNSKNRLYLQMNSLRAEDTAMYYCARATEVREKQGYNYPFNYWGQGTLVTVSS | –
15 | – | – | – | 6.54 nM | 3.18e+06 | – | – | PR005570 (antibody, human IgG1, V domains shown, no light chain; also called anti-PD1 PR002481R2M1_H3 HCAb hIgG1) VH: EVQLVETGGGLIQPGGSLRLSCAASGFNVSFYYMSWVRQAPGKGREWVSIIDKGGSTYYGDSVKGRFTISRDNSKNRLYLQMNSLRAEDTAMYYCARATEVREKNGYNYPFNYWGQGTLVTVSS | –
16 | 6.46 nM | 4.28e-05 s⁻¹ | 12900 M⁻¹ s⁻¹ | – | – | 3.93 nM | 2.58e+06 | PR005575 (antibody, human IgG1, V domains shown, no light chain; also called anti-PD1 PR002481Com_24 HCAb hIgG1) VH: EVQLVETGGGLIQPGGSLRLSCAASGFNVASHYMSWVRQAPGKGREWVSIIDKAGSGYYADSVKGRFTISRDNSKNRLYLQMNSLRAEDTAMYYCARATEVREKQGYNYPFNYWGQGTLVTVSS | –
